Changes are numbered by the printed parent chain. “And” between values parts separate entries of the source, which are not always exact repeats. Identical values can stand only once. One block for each binder: values may come before it.
Experiments:
[1] = molecular target: T1, human IL-18Rα (IL-18R1) on human cells (KG-1 cells, PBMC, TH1-cultured T cells, whole blood) (human, UniProt Q13478 19-541); assay: cell-based or functional assay
T1 sequence: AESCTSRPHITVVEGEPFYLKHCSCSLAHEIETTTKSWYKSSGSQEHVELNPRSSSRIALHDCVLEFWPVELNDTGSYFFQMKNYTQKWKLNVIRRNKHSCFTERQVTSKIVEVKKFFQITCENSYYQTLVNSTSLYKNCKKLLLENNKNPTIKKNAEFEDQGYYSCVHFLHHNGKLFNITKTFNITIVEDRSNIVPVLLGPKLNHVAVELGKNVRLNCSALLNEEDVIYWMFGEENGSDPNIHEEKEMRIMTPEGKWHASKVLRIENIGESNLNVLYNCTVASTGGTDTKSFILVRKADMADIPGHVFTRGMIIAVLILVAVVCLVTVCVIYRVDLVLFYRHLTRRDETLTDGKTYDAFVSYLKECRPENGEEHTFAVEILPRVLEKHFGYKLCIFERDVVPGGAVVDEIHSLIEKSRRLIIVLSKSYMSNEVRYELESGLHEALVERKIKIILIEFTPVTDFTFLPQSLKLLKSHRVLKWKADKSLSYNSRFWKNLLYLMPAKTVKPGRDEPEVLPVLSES

[2] = molecular target: T2, human IL-18Rα/IL-18Rβ on transfected HEK293 cells (human, UniProt O95256 20-599); assay: FACS on transfected HEK293 cells, antibody 1 µg/ml
T2 construct: whole, on cells; also called human IL-18Ralpha+IL-18Rβ subunits
T2 sequence 1: T1 sequence
T2 sequence 2: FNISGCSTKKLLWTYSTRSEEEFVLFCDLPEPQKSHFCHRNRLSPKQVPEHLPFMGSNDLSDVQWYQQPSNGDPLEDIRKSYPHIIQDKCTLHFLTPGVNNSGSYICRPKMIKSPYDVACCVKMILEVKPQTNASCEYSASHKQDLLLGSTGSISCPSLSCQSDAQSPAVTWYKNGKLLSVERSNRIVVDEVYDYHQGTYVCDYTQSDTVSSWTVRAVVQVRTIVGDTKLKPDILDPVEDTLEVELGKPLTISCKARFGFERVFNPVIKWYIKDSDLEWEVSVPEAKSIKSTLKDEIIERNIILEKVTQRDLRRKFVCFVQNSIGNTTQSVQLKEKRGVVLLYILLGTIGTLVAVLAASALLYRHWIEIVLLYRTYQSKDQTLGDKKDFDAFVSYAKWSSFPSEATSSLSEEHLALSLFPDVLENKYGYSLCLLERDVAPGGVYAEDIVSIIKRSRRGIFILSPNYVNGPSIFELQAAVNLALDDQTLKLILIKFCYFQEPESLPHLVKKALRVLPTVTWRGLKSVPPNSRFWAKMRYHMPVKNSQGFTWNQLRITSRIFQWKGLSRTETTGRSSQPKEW
Procedure: 10⁶ HEK293 cells were transfected with a plasmid expressing human IL-18Ralpha+IL-18Rβ. Transfected cells were incubated for 1 day. 1×10⁵ cells were incubated on ice in PBS-buffer+2% FCS and stained with an IL-18Rα antibody (1 μg/ml). As secondary antibody anti-mouse IgG1-PE from R&D Systems (F0102B) was added in 1:20 dilution and as isotype control mouse IgG1 from BD Pharmingen (557273) was used at a concentration of 1 μg/ml.

[3] = molecular target: T3, recombinant human IL-18Rα Fc chimera (R&D Systems, Cat. No. 816-LR) (human, UniProt Q13478 19-329); assay: competition ELISA: inhibition of biotinylated IL-18 (+IL-18Rβ) binding to captured IL-18Rα Fc chimera
T3 construct: Bought protein; also called hIL-18Rα (hFc-chimera R&D-Systems 816-LR); recombinant human IL-18Rα-Fc fusion protein; not shown: human Fc of the commercial chimera
T3 sequence: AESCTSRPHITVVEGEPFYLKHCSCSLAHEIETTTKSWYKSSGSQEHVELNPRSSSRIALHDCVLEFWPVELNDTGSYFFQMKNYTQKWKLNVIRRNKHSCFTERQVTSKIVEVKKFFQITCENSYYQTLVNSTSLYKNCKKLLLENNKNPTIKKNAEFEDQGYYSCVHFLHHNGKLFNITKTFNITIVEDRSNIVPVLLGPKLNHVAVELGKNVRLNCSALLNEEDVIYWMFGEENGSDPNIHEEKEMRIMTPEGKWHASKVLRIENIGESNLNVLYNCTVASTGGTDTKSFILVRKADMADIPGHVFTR
Procedure: The test was performed on 384 well microtiter plates at room temperature (RT). After each incubation step plates were washed 3 times with PBST (Phosphate Buffered Saline Tween®-20). At the beginning, plates were coated with 0.5 μg/ml goat anti-human IgG Fc fragment (Jackson 1 mm. Res., US, Cat. No. 109-006-170) for at least 2 hours (h). Thereafter the wells were blocked with PBS supplemented with 0.1% Tween®-20 and 2% BSA (Roche Diagnostics GmbH, DE) for 1 h. 0.2 μg/ml of recombinant human IL-18Rα Fc chimera (R&D Systems, UK, Cat. No. 816-LR) was captured for 1 h. Dilutions of purified antibodies in PBS with 0.5% BSA and 0.05% Tween®-20 were incubated with the receptor protein for 1 h. Biotinylated human IL-18 (MBL International, US, Cat. No. B003-5) and 0.2 μg/ml IL-18R13 (R&D Systems, UK, Cat. No. 118-AP) were added for an additional hour to build up the trimeric complex. IL-18 was biotinylated with Sulfo-NHS-LC-Biotin (Thermo Scientific Pierce, US, Cat. No. 21327) according to the manufacturer's protocol and purified using Zeba™ Desalt Spin Column (Thermo Scientific Pierce, US, Cat. No. 89889). Binding of the biotinylated IL-18 to the complex was detected with 1:2000 diluted streptavidin HRP (Roche Diagnostics GmbH, DE, Cat. No. 11089153001). […] Absorbance was measured at 370 nm. […]

IL-18 induced IFNγ production by human KG-1 cells, IC50 [pM] [1]: 27 pM
binding result [2]: binds
IC50 [3]: 0.022 µg/mL and 0.15 nM
B1: Mab 1G12 (antibody, V domains shown)
VH: QVQLQQPGAELVKPGASVRMSCKTSDYTFTSNWMHWVKQRPGQGLEWIGTIDPSDSYTYYNQKFKGRATLTVDTSSSTAYMQLSSLTSEDSAVYYCTTSGDYDADRYFDVWGAGTTVTVSS
VL: DIVLTQSPASLGVSLGQRATISCRASKSVSTSGDSYMHWYQQKPGQSPKLLIYLASNLESGVPARFSGSGSGTDFTLNIHPVEEEDAATYYCQQSRELPLSFGAGTKLELK
notes: Monoclonal antibody from immunized NMRI mice; detected with anti-mouse IgG1-PE / anti-mouse IgG; also called F20.1G12; monoclonal antibody 1G12

IL-18 induced IFNγ production by human KG-1 cells, IC50 [pM] [1]: 43 pM
binding result [2]: binds
IC50 [3]: 0.029 µg/mL and 0.19 nM
B2: Mab 2D11 (antibody, V domains shown)
VH: B1 VH with R19K, T24A, R67K, Q82H
VL: B1 VL
notes: Monoclonal antibody from immunized NMRI mice; detected with anti-mouse IgG1-PE / anti-mouse IgG; also called F20.2D11

From patent publication US20120156198A1 (Hoffmann-La Roche, published 2012)
